Test results: the nanobody polyreactivity screen of Harvey et al. (2022)

experiment: yeast display, Sf9 membrane polyspecificity reagent, FACS + sequencing; frameworks hold sequencing errors
In short: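 Nanobodies came from a synthetic yeast display library in Saccharomyces cerevisiae BJ5465, induced with galactose for 36–48 hours and stained for 1 hour at 4 °C with 10% biotinylated, detergent-solubilized Sf9 membrane reagent. Cells were enriched on streptavidin microbeads and then FACS-sorted, with low and high (top ~1%) gates set on anti-HA fluorescence for expression and streptavidin fluorescence for reagent binding. Each polyreactivity label reflects the gate a clone came from. Genes were amplified by colony PCR, sequenced by MiSeq 2 × 250 and filtered by CDR length.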

Row | Sequence | polyreactivity (PSR sort gate)
1 | QVQLVESGGGLVQAGGSLRLSCAASGLTFQNNAMGRSRQAPGKERELVAVITRIGGSTYYADSVKGRFTISRDNAKNTVYLQLNSLKPEDTAVYYCAVRRRYTPGYDYWGQGTQVTVSS | high polyreactivity
2 | QVQLVESGGGLVQAGGSLRLSCAASGLTFQNNARGWYRQAPGKERELVAAISDGGSTYYADSVKGRFTISRDNAKNTVYLQMNSLKPEDTGVYYCNADYGGWDYLYTSDQDNEYGYWGQGTQVTVSS | low polyreactivity
3 | QVQLVESGGGLVQAGGSLRLSCAASGLTFQSYAMGWYRQAPGKEREFAYYADSVKGRFTMSRDNAKNTVYLQMNSLKPEDTAVYYCNGADDEGDRPITQVGYDYWGQGTQVTVSS | low polyreactivity
4 | QVQLVESGGGLVQAGGSLRLSCAASGLTFQYNAMGWYRQAPGKERELVAAISWSGGSTYYADSVKGRFTISRDNAKNTVYLQMNSLNPEDTAVYYCAAVYLHKSYARRMDYWGQGTQVTVSS | low polyreactivity
5 | QVQLVESGGGLVQAGGSLRLSCAASGLTFRAYVMGWYRQAPGKERELVAAISVSGGSTYYADSVKGRFTISRDNAKNTVYLQMNSLKPEDTAVYYCAAAAKSWLFDYWGQGTQVTVSS | high polyreactivity
6 | QVQLVESGGGLVQAGGSLRLSCAASGLTFRINAMGWYRQAPGKERELVAAITDSGTSTSYADSVKGRFTISRDNAKNTVYLQMKSLKPEDTAVYYCAADVRPGYYLYRSWGAYDYWGQGTQVTVSS | low polyreactivity
7 | QVQLVESGGGLVQAGGSLRLSCAASGLTFRKNAMGWYRQAPGKERELVAAISFSGDRTYYADSVKGRFTISRDNAKNTVYLQMNSLKPEDTAVYYCAARSGVPGLEYDYWGQGTQVTVSS | low polyreactivity
8 | QVQLVESGGGLVQAGGSLRLSCAASGLTFRKNAMGWYRQAPGKERELVAAISTGGRTYYADSVKGRFTISRDNAKNTVYLQMNSLKPEDTAVYYFNSVSVKSGLDYWGQGTQVTVSS | high polyreactivity
9 | QVQLVESGGGLVQAGGSLRLSCAASGLTFRPYTMGWYRQAPGKERELVAAISARGGRTYYADSVKGRFTISRDNAKNTVYLQMNSLKPEDTAVYYCATLETTGVNYWGQGTQVTVSS | high polyreactivity
10 | QVQLVESGGGLVQAGGSLRLSCAASGLTFRRNAMGWYRQAPGKERELVAAITARGTSTYYADSVKGRFSISRDNAKNTVYLQMNSLKPEDTAVYYCNVRWHRTRSEYDYWGQGTQVTVSS | high polyreactivity
11 | QVQLVESGGGLVQAGGSLRLSCAASGLTFRRNAMGWYRQAPGKERELVAVNSRSGGSTYYADSVKGRFTISRDNAKNTVYLQMNCLKPEDTAVYYCNKRTRRTYDYWGQGTQVTVSS | high polyreactivity
12 | QVQLVESGGGLVQAGGSLRLSCAASGLTFRRYDMGWYRQAPGKERELVAAITGGGSTYYADSVKGRFTISRDNAKNTVYLQMNSLKPEDTAVYYCAAGTWYWSYAYDYWGQGTQVTVSS | high polyreactivity
13 | QVQLVESGGGLVQAGGSLRLSCAASGLTFRRYGMGWYRQAPGKERELVASISSRGGNTYYADSVKGRFTISRDNAKNTVYLQMNSLKPEDTAVYYCATGVSTRYEYWGQGTQVTVSS | high polyreactivity
14 | QVQLVESGGGLVQAGGSLRLSCAASGLTFRVYDMGWYRQAPGKERELVAAITGGGRTYYADSVKGRFTISRDNAKNTVYLQMNSLKPEDTAVYYCAARTRVTKREYDYWGQGTQVTVSS | high polyreactivity
15 | QVQLVESGGGLVQAGGSLRLSCAASGLTFRYNAMGWYRQAPGKERELVARISRNGGRTYYADSVKGRFTISRDNAKNTVYLQMNSLKPEDTAVYYCNVVYFVTTSPGYDYWGQGTQVTVSS | high polyreactivity
16 | QVQLVESGGGLVQAGGSLRLSCAASGLTFRYNTMGWYRQAPGKEREFVAAINYGGGSTYYADSVKGRFTISRDNAKNTVYLQMNSLKPEDTAVYYCARRTPRTPVTLYDYWGQGTQVTVSS | high polyreactivity
17 | QVQLVESGGGLVQAGGSLRLSCAASGLTFRYYAMGGYRQAPGKERELDAAITSSGTSTYYADSVKGRFTISRDNAKNTVSLQMNSLKPEDTAVYYCAARYSGGTWSGYNYWGQGTQVTVSS | high polyreactivity
18 | QVQLVESGGGLVQAGGSLRLSCAASGLTFRYYAMGWYRQAPGKERELVAAITRGARTNYADSVKGRFTISRDNAKNTVYLQMNSLKPEDTAVYYCNAGFTGLHRYGYWGQGTQVTVSS | high polyreactivity
19 | QVQLVESGGGLVQAGGSLRLSCAASGLTFRYYAMGWYRQAPGKERELVATITGSGGSTYYADSVKGRFTISRDNAKNTVYFQMNSLNPEYTAVYYCAATVRVYDYWGQGTQVNVSS | high polyreactivity
20 | QVQLVESGGGLVQAGGSLRLSCAASGLTFSGYAMGWYRQAPGKERELVAAISWRGGSTYYADSVKGRFTISRDNAKNTVYLQMNSLKPEDTAVYYCNRARVQDYPYYYWGQGTQVTVSS | high polyreactivity
21 | QVQLVESGGGLVQAGGSLRLSCAASGLTFSGYSMGWYRQAPGKERELVAAITSGGNTYYADSVNGRFTISRDNAKNTVYLQMNSLKPEDTAVYYCNVADWRRWGYDYWGQGTQVTVSS | low polyreactivity

Row | Sequence | polyreactivity (PSR sort gate)
22 | QVQLVESGGGLVQAGGSLRLSCAASGLTFSGYVMGWYRQAPGKERELVAAISSSGGRTYYADSVKGRFTISRDNAKNTVYLQMNSLKPEDTAVYYCAARNKYGGYPYGYDYWGQGTQVTVSS | high polyreactivity
23 | QVQLVESGGGLVQAGGSLRLSCAASGLTFSIYAMGWYREAPGKERELVAAITGRGGRTYYADSVKGRFTISRDNAKNTVYLQMHSLKPEDTAVYYCAARYRGTDFDYWGQGTQVTVSS | high polyreactivity
24 | QVQLVESGGGLVQAGGSLRLSCAASGLTFSIYAMGWYRQEPGKERELVARITWNSGSTYYADSVKGRFTISRDNAKNTVYLQMNSLKPEDTAVYYCNARFWGSGVGDLWEGVRYDYWGQGTQVTVSS | high polyreactivity
25 | QVQLVESGGGLVQAGGSLRLSCAASGLTFSKNVMGWYRQAPGKERELVAAISGITSSTYYADSVKGRFTISRDNAKNTVYLQMNSLKPEDTAVYYCAADLSFSRPGRFGYWGQGTQVTVSS | high polyreactivity
26 | QVQLVESGGGLVQAGGSLRLSCAASGLTFSKYVMGWYIQAPGKERELVAAITWSGGRTYYADSVKGRFTISRDNAKNTVYLQMNSLKPEDTAVYYCNRKLKGLGYEYDYWGQGTQVTVSS | high polyreactivity
27 | QVQLVESGGGLVQAGGSLRLSCAASGLTFSPNAMGWYRQAPRKERELVAAISSSGGRTNYADSVKGRFTISRDNAKNTVYLQMNSLKPEDTAFYYCAARFYKTYPRMNYWGQGTQVTVSS | high polyreactivity
28 | QVQLVESGGGLVQAGGSLRLSCAASGLTFSPYAMGWSRQAPGKERELVATITIGGSTKYADSVKGRFTISRDNAKNTVYLQMNSLKPEDSAVYYCAVRSGYVTRSYEYWGQGTQVTVSS | low polyreactivity
29 | QVQLVESGGGLVQAGGSLRLSCAASGLTFSRYAMGWYRQAPGKERELVAAISSSGTRTYYADSVKGRFTISPDNPKNTVYLQMNSLKPEDTAVYYCNAYYAPRGYGYWGQGTQVTVSS | high polyreactivity
30 | QVQLVESGGGLVQAGGSLRLSCAASGLTFSRYAMGWYRQAPGKERELVAAITWSGSSTYYADSVKGRFTISRDNAKNTVYLQMNSLKPEDTAVYYCAARYGYSRGPYYRSDYWGQGTQVNVSS | high polyreactivity
31 | QVQLVESGGGLVQAGGSLRLSCAASGLTFSVNAMGWYRQAPGKERELVAAINYGGGSTYYADSVKGRFTISRDNAKNTVYLQMNSLKPEDTAVYYCAAVPYPRGKGYDYWGQGTQVTVSS | high polyreactivity
32 | QVQLVESGGGLVQAGGSLRLSCAASGLTFSVYAMGWYRQAPGKERELVAAITSSGRTYYADSVKGRFTISRDNAKNTVYLQMNSLKPEDTAVYYCAAGYKSGPRRYYYWGQGTQVTVSS | high polyreactivity
33 | QVQLVESGGGLVQAGGSLRLSCAASGLTFSVYTMGWYRQAPGKERELVAAITTSGGRTYYADSVKGRFTISRDNAKNTVYLQMNSLKPVDPAVYYCAAVRTGDTTGTMGYWGQGTQVTVSS | high polyreactivity
34 | QVQLVESGGGLVQAGGSLRLSCAASGLTFSYYAMGWYRQAPGKERELVAAISWSGGITYYADSVKGRFKISRDNAKNTVYLQMNSLKPEDTAVYYCAADGYPTLFDYWGQGTQVTVAS | high polyreactivity
35 | QVQLVESGGGLVQAGGSLRLSCAASGLTFSYYAMGWYRQAPGKERELVAGISSSGGTTYYADSVKGRFTISRDNAKNTVYLQMNSLKPEDTAVYYCATRRHYGSFWYDYWGQGTQVTVSS | high polyreactivity
36 | QVQLVESGGGLVQAGGSLRLSCAASGLTFTAYAMGWYRQAPGKERELVAAISVRGGRTYYADSVKGRFTISRDNAKNTVYLQMNSLKPEDTAVYYCNAVRFISARYDYWGQGTQVTVSS | high polyreactivity
37 | QVQLVESGGGLVQAGGSLRLSCAASGLTFTGYAMGWYRQAPGKERELVAAISRGDSTYYAYSVNGRFTISRDNAKNTVYLQMNSLKPEDTAVYYCAAYKGYGRRPGVSGYYWGQGTQVTVSS | high polyreactivity
38 | QVQLVESGGGLVQAGGSLRLSCAASGLTFTKYAMGWYRQAPGKERELVAAINRRGGSTYYADSVKGRFTISRDNAKNTVYLQMNSLKPEDTAVYYCAKRKSVRSTPSYEYWGQGTQVTVSS | high polyreactivity
39 | QVQLVESGGGLVQAGGSLRLSCAASGLTFTRYDMGWYRQAPGKERELVASISQSGTSTHYADSVKGRFTISRDNAKNTVYLQMNSLKPEDTAVYYCAADYVSRYYVKWYRGFDYWGQGTQVTVSS | low polyreactivity
40 | QVQLVESGGGLVQAGGSLRLSCAASGLTFTTYAMGWSRQAPGKERELVAAISRRGSRTYYADSVKGRFTISRDNAKNTVYLQMNSLKPEDTAVYYCNALTGSFKTYSFDYWGQGTQVTVSS | high polyreactivity
41 | QVQLVESGGGLVQAGGSLRLSCAASGLTFTYYALGWYRQAPGKERELVAAISSSGSDTYYADSVKGRFTISRDNAKNTVYLQMNSLKPEDTAVYYCAAVLTGLSPDFEYEYWGQGTQVTVSS | low polyreactivity
